Literature values in PMC4650670.

Biological target: actin (Oryctolagus cuniculus) (UniProt P68135)

Kd: 220 µM
Substance: nebulin repeat fragment (from UniProt P20929)
